Assay [1] deals with HLA-A*02:03. Briefly: IEDB peptide-MHC binding, purified MHC/direct/fluorescence; filed as Kd, often an IC50 or EC50 that approximates it; ≥ and ≤ were set here for values at or beyond the usual limits of such assays.
Assay [2] concerns the target HLA-A*02:12. The description is as above.
Assay [3] concerns the target HLA-A*02:16. The assay is described as above.
The target of assay [4] is HLA-A*02:19. Described as above.
For assay [5], the target named is HLA-A*03:01. The description is as above.
Assay [6] concerns the target HLA-A*23:01. The description is as above.
The target in assay [7] is HLA-A*24:03. Described as above.
For assay [8], the target named is HLA-A*29:02. The assay is described as above.
In assay [9] the target is HLA-A*68:02. Described as above.
Assay [10] addresses HLA-A*26:01. The assay is described as follows: IEDB peptide-MHC binding, purified MHC/competitive/fluorescence; filed as Kd, often an IC50 or EC50 that approximates it; ≥ and ≤ were set here for values at or beyond the usual limits of such assays.
In assay [11] the target is HLA-A*31:01. Described as above. Particulars: source organism: Orthohantavirus tulaense.
For assay [12], the target named is HLA-A*69:01. Described as above.
The target of assay [13] is HLA-B*15:01. The assay is described as above.
In assay [14] the target is HLA-B*15:17. The description is as above.
In assay [15] the target is HLA-B*18:01. The description is as above.
For assay [16], the target named is HLA-B*27:03. The description is as above.
For assay [17], the target named is HLA-B*39:01. The assay is described as above.
Assay [18] concerns the target HLA-B*46:01. Described as above.
Assay [19] has as its target HLA-B*51:01. Described as above.
Assay [20] addresses HLA-B*57:01. The description is as above.
In assay [21] the target is HLA-A*02:11. The assay is described as follows: IEDB peptide-MHC binding, purified MHC/direct/fluorescence; filed as Kd, often an IC50 or EC50 that approximates it; ≥ and ≤ were set here for values at or beyond the usual limits of such assays.
Assay [22] addresses HLA-A*11:01. The assay is described as above.
The target of assay [23] is HLA-A*02:01. Briefly: IEDB peptide-MHC binding, purified MHC/competitive/fluorescence; filed as Kd, often an IC50 or EC50 that approximates it; ≥ and ≤ were set here for values at or beyond the usual limits of such assays.
Assay [24] deals with HLA-A*26:01. The assay is described as follows: IEDB peptide-MHC binding, purified MHC/direct/fluorescence; filed as Kd, often an IC50 or EC50 that approximates it; ≥ and ≤ were set here for values at or beyond the usual limits of such assays. Particulars: source organism: Sudan ebolavirus - Uganda (2000).
The target of assay [25] is HLA-B*07:02. The description is as above. Particulars: source organism: Zaire ebolavirus.
In assay [26] the target is HLA-B*35:01. The assay is described as follows: IEDB peptide-MHC binding, purified MHC/competitive/fluorescence; filed as Kd, often an IC50 or EC50 that approximates it; ≥ and ≤ were set here for values at or beyond the usual limits of such assays. Particulars: source organism: Zaire ebolavirus.
Setting [27] is: source organism: Orthohantavirus tulaense.
[28] abbreviates: source organism: Vibrio vulnificus CMCP6.
Setting [29] is: source organism: Vibrio vulnificus YJ016.
Where [30] appears, read: source organism: Zaire ebolavirus.
[31] abbreviates: source organism: Ravn virus - Ravn, Kenya, 1987.
Setting [32] is: source organism: Bacillus cereus NVH0597-99.
[33] abbreviates: source organism: Bacillus thuringiensis serovar israelensis ATCC 35646.

For orientation: Kd means the constant that tells how readily two partners part at equilibrium. On to SLMSRVVYK, for which the dissociation constant (Kd) in assay [1] (setting [27]) was at least 20 µM; in assay [2] (setting [27]), at least 20 µM; in assay [3] (setting [27]), at least 20 µM; in [4] (setting [27]) it was at least 20 µM; in [5] (source organism: Orthohantavirus prospectense), 0.0772 µM; in assay [6] (setting [27]) it was at least 20 µM. Moreover, the Kd in [7] (setting [27]) was at least 20 µM; in assay [8] (setting [27]) it was at least 20 µM; in assay [9] (setting [27]), at least 20 µM; in assay [10] (setting [27]), at least 20 µM; in [11], 0.0031 µM; in assay [12] (setting [27]), at least 20 µM. The Kd in [13] (setting [27]), in assay [14] (setting [27]), in assay [15] (setting [27]), in [16] (setting [27]), in assay [17] (setting [27]) and in assay [18] (setting [27]) was at least 20 µM each time. Besides, the dissociation constant Kd in [19] (setting [27]) and in assay [20] (setting [27]) was at least 20 µM in each case.

For the sequence SVMSTFFWE, the dissociation constant Kd in assay [1] (setting [28]), in [21] (setting [28]), in assay [2] (setting [28]), in assay [3] (setting [28]), in assay [4] (setting [28]) and in assay [5] (setting [28]) was at least 20 µM each time. For the same sequence, the Kd in [22] (setting [28]) was 0.35 µM; in assay [6] (setting [28]), at least 20 µM; in [7] (setting [28]), at least 20 µM; in assay [8] (setting [28]) it was at least 20 µM; in assay [9] (setting [28]), at least 20 µM; in [23] (setting [29]), at least 20 µM. Also, the Kd in assay [10] (setting [29]), in [12] (setting [29]), in assay [14] (setting [29]), in assay [15] (setting [29]), in assay [16] (setting [29]) and in assay [17] (setting [29]) was at least 20 µM in each case. Also, the Kd in [18] (setting [29]), in assay [19] (setting [29]) and in assay [20] (setting [29]) was at least 20 µM each time.

As for ATAAATEAY, the Kd in assay [1] (setting [30]), in [21] (setting [30]), in [2] (setting [30]), in assay [3] (setting [30]), in assay [4] (setting [30]) and in [5] (setting [30]) was at least 20 µM each time. The equilibrium dissociation constant (Kd) is at least 20 µM in [6] (setting [30]); at least 20 µM in assay [7] (setting [30]); 0.216 µM in [24]; at least 20 µM in assay [9] (setting [30]); at least 20 µM in [23] (setting [30]); at least 20 µM in assay [12] (setting [30]). Besides, the dissociation constant Kd in [15] (setting [30]), in assay [16] (setting [30]), in assay [17] (setting [30]), in [18] (setting [30]) and in [20] (setting [30]) was at least 20 µM in each case.

Turning to GLSFLNPEK, the dissociation constant (Kd) was at least 20 µM in [1] (setting [31]); at least 20 µM in assay [2] (setting [31]); at least 20 µM in assay [4] (setting [31]); 0.152 µM in assay [5] (source organism: Sudan ebolavirus - Maleo (1979)); at least 20 µM in [6] (setting [31]); at least 20 µM in [7] (setting [31]). The Kd in [9] (setting [31]), in assay [10] (setting [30]), in [12] (setting [30]), in assay [13] (setting [30]), in [14] (setting [30]) and in [15] (setting [30]) was at least 20 µM each time. The Kd in assay [16] (setting [30]), in [17] (setting [30]), in assay [18] (setting [30]), in [19] (setting [30]) and in assay [20] (setting [30]) was at least 20 µM each time.

In the case of FPSNMMVVT, the Kd in assay [1] (setting [31]), in assay [21] (setting [31]), in assay [2] (setting [31]), in assay [3] (setting [31]), in [4] (setting [31]) and in [5] (setting [31]) was at least 20 µM throughout. Also, the Kd in assay [6] (setting [31]) was at least 20 µM; in assay [7] (setting [31]) it was at least 20 µM; in assay [8] (setting [31]), at least 20 µM; in [9] (setting [31]), at least 20 µM; in assay [25], 0.751 µM; in [23] (setting [30]) it was at least 20 µM. Also, the dissociation constant (Kd) in [10] (setting [30]), in [12] (setting [30]), in [13] (setting [30]), in assay [14] (setting [30]), in assay [15] (setting [30]) and in [16] (setting [30]) was at least 20 µM in each case. For the same sequence, the Kd in assay [26] is 0.0004 µM; in [17] (setting [30]), at least 20 µM; in [18] (setting [30]), at least 20 µM; in assay [19] (setting [30]) it was at least 20 µM; in assay [20] (setting [30]), at least 20 µM.

For ITMYVAFEQ, the Kd in assay [1] (setting [32]), in assay [21] (setting [32]), in assay [2] (setting [32]), in assay [3] (setting [32]), in assay [4] (setting [32]) and in assay [5] (setting [32]) was at least 20 µM each time. The Kd in assay [22] (setting [32]), in [6] (setting [32]), in assay [7] (setting [32]), in [8] (setting [32]), in [9] (setting [32]) and in [23] (setting [33]) was at least 20 µM in each case. The Kd in assay [10] (setting [33]), in assay [12] (setting [33]), in assay [14] (setting [33]), in assay [15] (setting [33]), in assay [16] (setting [33]) and in [17] (setting [33]) was at least 20 µM in each case. Further, the Kd in assay [18] (setting [33]), in assay [19] (setting [33]) and in assay [20] (setting [33]) was at least 20 µM each time.

Values taken from the Immune Epitope Database (IEDB).
